The text below walks through data of paper PMC12416549 (2024).

Residue numbers refer to the chain shown, from its start. In names and notes the source's numbering stands.

The labels stand for the following.
T1: TNFR1 (Homo sapiens, UniProt P19438)
T1 chain: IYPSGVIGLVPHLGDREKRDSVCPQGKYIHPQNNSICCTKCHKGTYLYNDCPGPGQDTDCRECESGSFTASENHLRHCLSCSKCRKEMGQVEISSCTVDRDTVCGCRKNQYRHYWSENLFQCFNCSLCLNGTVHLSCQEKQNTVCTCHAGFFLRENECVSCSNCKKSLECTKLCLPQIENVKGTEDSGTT

B1: L75H (designed binder)
chain: SMEEEVEKAAKEYEKKKKEAIEKHLEKLKAKDKEAAERFLKELEEAAKEYAKDEAKTMSEEEAKRRAKKYKEKVHLSELSEEEQKEIKEAEEKLVRTILKYVEEAAK
B2: E104H (designed binder)
chain: B1 chain with H75L, E104H
B3: D53F (designed binder)
chain: B1 chain with D53F, H75L
B4: K56D (designed binder)
chain: B1 chain with K56D, H75L
B5: Y70N (designed binder)
chain: B1 chain with Y70N, H75L
B6: A20R (designed binder)
chain: B1 chain with A20R, H75L
B7: K31S (designed binder)
chain: B1 chain with K31S, H75L
B8: L28Q (designed binder)
chain: B1 chain with L28Q, H75L
B9: E86N (designed binder)
chain: B1 chain with H75L, E86N
B10: A51K (designed binder)
chain: B1 chain with A51K, H75L
B11: A35V (designed binder)
chain: B1 chain with A35V, H75L
B12: M58V (designed binder)
chain: B1 chain with M58V, H75L
B13: Y70W (designed binder)
chain: B1 chain with Y70W, H75L
B14: Q84K (designed binder)
chain: B1 chain with H75L, Q84K
B15: E7H (designed binder)
chain: B1 chain with E7H, H75L
B16: Y50H (designed binder)
chain: B1 chain with Y50H, H75L
B17: K68V (designed binder)
chain: B1 chain with K68V, H75L
B18: L99D (designed binder)
chain: B1 chain with H75L, L99D
B19: V6I (designed binder)
chain: B1 chain with V6I, H75L
B20: A46F (designed binder)
chain: B1 chain with A46F, H75L
B21: A55T (designed binder)
chain: B1 chain with A55T, H75L
B22: A46D (designed binder)
chain: B1 chain with A46D, H75L
B23: K88M (designed binder)
chain: B1 chain with H75L, K88M
B24: S80G (designed binder)
chain: B1 chain with H75L, S80G
B25: E72R (designed binder)
chain: B1 chain with E72R, H75L
B26: D53G (designed binder)
chain: B1 chain with D53G, H75L
B27: E103T (designed binder)
chain: B1 chain with H75L, E103T
B28: K15M (designed binder)
chain: B1 chain with K15M, H75L
B29: S80D (designed binder)
chain: B1 chain with H75L, S80D
B30: E37K (designed binder)
chain: B1 chain with E37K, H75L
B31: K64F (designed binder)
chain: B1 chain with K64F, H75L
B32: K23F (designed binder)
chain: B1 chain with K23F, H75L
B33: K17E (designed binder)
chain: B1 chain with K17E, H75L
B34: R96K (designed binder)
chain: B1 chain with H75L, R96K
B35: K64D (designed binder)
chain: B1 chain with K64D, H75L
B36: E81N (designed binder)
chain: B1 chain with H75L, E81N
B37: E81T (designed binder)
chain: B1 chain with H75L, E81T
B38: E81G (designed binder)
chain: B1 chain with H75L, E81G
B39: K107V (designed binder)
chain: B1 chain with H75L, K107V
B40: E5R (designed binder)
chain: B1 chain with E5R, H75L
B41: A106H (designed binder)
chain: B1 chain with H75L, A106H
B42: A9Q (designed binder)
chain: B1 chain with A9Q, H75L
B43: K29V (designed binder)
chain: B1 chain with K29V, H75L
B44: E42K (designed binder)
chain: B1 chain with E42K, H75L
B45: L40P (designed binder)
chain: B1 chain with L40P, H75L
B46: E81K (designed binder)
chain: B1 chain with H75L, E81K
B47: K15F (designed binder)
chain: B1 chain with K15F, H75L
B48: E89F (designed binder)
chain: B1 chain with H75L, E89F
B49: S59E (designed binder)
chain: B1 chain with S59E, H75L
B50: K33F (designed binder)
chain: B1 chain with K33F, H75L
B51: K69V (designed binder)
chain: B1 chain with K69V, H75L
B52: I87K (designed binder)
chain: B1 chain with H75L, I87K
B53: K27I (designed binder)
chain: B1 chain with K27I, H75L
B54: L99W (designed binder)
chain: B1 chain with H75L, L99W
B55: K88T (designed binder)
chain: B1 chain with H75L, K88T

For the assay, the target named is T1, TNFR1. In words: yeast display SC50.
As for B1, the “apparent Kd (screen)” value worked out at 1.69 nM.

Consider B2, for which the “apparent Kd (screen)” value amounted to 0.446 nM. Take B3: the “apparent Kd (screen)” value was 2.48 nM. For B4, the “apparent Kd (screen)” value turned out to be 7.78 nM.

With B5, the “apparent Kd (screen)” value worked out at 8.56 nM. The figure for B6 is 0.446 nM; for B7 it is 0.956 nM. With B8 the figure was 0.539 nM; with B9, 0.653 nM; with B10, 0.49 nM. The figure for B11 is 0.653 nM; for B12 it is 2.25 nM. With B13, the “apparent Kd (screen)” value worked out at 8.56 nM. As to B14, the “apparent Kd (screen)” value was found to be 7.07 nM. B15: the “apparent Kd (screen)” value was determined as 4.39 nM. In the case of B16, the “apparent Kd (screen)” value turned out to be 13.8 nM. Regarding B17, the “apparent Kd (screen)” value turned out to be 1.27 nM. With B18, the “apparent Kd (screen)” value came to 11.4 nM.

In the case of B19, the “apparent Kd (screen)” value was 0.49 nM. As to B20, the “apparent Kd (screen)” value was 16.7 nM. As for B21, the “apparent Kd (screen)” value is 10.4 nM. On to B22, for which the “apparent Kd (screen)” value was 2.73 nM. With B23 the figure was 0.446 nM; with B24, 2.48 nM.

For the molecule B25, the “apparent Kd (screen)” value turned out to be 7.07 nM. With B26 the figure was 12.5 nM; with B27, 0.718 nM. The figure for B28 is 0.539 nM; for B29 it is 1.4 nM; for B30 it is 0.49 nM. The figure for B31 is 0.49 nM; for B32 it is 0.79 nM; for B33 it is 1.05 nM.

B34: the “apparent Kd (screen)” value turned out to be 0.718 nM. For the molecule B35, the “apparent Kd (screen)” value turned out to be 1.05 nM. With B36 the figure was 0.49 nM; with B37, 0.718 nM. The figure for B38 is 1.16 nM. As to B39, the “apparent Kd (screen)” value came to 2.05 nM. With B40 the figure was 0.446 nM. With B41 the figure was 1.54 nM.

B42: the “apparent Kd (screen)” value was found to be 0.446 nM.

In the case of B43, the “apparent Kd (screen)” value was found to be 0.869 nM. As to B44, the “apparent Kd (screen)” value worked out at 0.368 nM. As to B45, the “apparent Kd (screen)” value turned out to be 10.4 nM.

As to B46, the “apparent Kd (screen)” value turned out to be 0.593 nM. With B47 the figure was 0.446 nM; with B48, 1.86 nM; with B49, 0.956 nM. With B50 the figure was 0.49 nM; with B51, 0.49 nM; with B52, 9.41 nM. With B53, the “apparent Kd (screen)” value stood at 1.05 nM. The figure for B54 is 11.4 nM. The figure for B55 is 0.446 nM.
